Results as given in PMC11861898 (Communications Biology, 2025).
Blank lines part the entries; values can stand above or below the binder they belong to.

Assays:
[1] = target: T1, human CIB2 1-187 (calcium- and integrin-binding protein 2), wild type (human, UniProt O75838 1-187); assay: ITC
T1 sequence: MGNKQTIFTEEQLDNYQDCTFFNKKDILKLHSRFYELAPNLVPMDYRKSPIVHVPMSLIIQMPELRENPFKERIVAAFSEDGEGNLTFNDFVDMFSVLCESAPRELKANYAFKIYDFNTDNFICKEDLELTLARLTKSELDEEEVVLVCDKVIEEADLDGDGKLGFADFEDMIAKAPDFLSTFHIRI

[2] = target: T2, human CIB2 1-187 E11R (human, UniProt O75838 1-187, E11R); assay: ITC + SEC
T2 sequence: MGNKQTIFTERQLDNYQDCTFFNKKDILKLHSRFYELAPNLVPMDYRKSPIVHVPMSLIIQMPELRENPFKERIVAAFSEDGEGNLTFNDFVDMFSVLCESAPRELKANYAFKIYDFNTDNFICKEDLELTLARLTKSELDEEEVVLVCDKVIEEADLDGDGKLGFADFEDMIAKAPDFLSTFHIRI

[3] = target: T3, human CIB2 1-187 F21Q (human, UniProt O75838 1-187, F21Q); assay: ITC + SEC
T3 sequence: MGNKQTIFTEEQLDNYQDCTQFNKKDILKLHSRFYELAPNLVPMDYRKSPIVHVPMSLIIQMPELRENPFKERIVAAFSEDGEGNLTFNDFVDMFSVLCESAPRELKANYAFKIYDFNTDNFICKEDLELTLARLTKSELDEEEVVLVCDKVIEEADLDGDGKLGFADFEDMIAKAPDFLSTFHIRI

[4] = target: T4, mouse CIB3 (mouse, UniProt A0A5F8MPX9 1-187); assay: ITC
T4 sequence: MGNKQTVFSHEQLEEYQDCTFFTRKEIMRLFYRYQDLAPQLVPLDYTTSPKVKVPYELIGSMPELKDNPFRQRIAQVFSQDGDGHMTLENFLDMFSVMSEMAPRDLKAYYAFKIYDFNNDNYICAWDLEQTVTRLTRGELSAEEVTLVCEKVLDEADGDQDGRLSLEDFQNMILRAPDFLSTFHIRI

[5] = target: T5, human CIB2 E64D (deafness-related variant) (human, UniProt O75838 1-187, E64D); assay: ITC
T5 sequence: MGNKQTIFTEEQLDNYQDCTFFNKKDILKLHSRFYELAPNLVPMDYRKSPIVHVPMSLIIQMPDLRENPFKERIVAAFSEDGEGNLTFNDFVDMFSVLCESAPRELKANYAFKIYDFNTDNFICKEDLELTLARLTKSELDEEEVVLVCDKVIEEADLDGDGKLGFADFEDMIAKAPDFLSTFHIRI

[6] = target: T6, human CIB2 R66W (deafness-related variant) (human, UniProt O75838 1-187, R66W); assay: ITC
T6 sequence: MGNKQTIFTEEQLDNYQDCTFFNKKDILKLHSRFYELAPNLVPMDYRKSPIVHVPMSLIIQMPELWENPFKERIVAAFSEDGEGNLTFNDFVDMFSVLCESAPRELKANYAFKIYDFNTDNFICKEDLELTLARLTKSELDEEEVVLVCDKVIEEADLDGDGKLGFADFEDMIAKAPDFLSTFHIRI

[7] = target: T7, human CIB2 I123T (deafness-related variant) (human, UniProt O75838 1-187, I123T); assay: ITC
T7 sequence: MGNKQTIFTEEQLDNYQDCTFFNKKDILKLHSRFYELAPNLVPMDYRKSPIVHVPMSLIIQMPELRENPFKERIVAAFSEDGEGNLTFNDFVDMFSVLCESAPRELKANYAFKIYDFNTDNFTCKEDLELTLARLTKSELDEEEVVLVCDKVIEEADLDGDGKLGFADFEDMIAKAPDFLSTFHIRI

[8] = target: T8, human CIB2 1-187 Q17A/T20A (human, UniProt O75838 1-187, Q17A | T20A); assay: ITC
T8 sequence: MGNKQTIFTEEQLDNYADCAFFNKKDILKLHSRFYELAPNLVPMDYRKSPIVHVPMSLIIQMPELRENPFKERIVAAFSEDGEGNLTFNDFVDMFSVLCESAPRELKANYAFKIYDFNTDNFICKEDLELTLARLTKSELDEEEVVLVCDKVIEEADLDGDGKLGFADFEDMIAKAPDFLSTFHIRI

[9] = target: T9, human CIB2 R186W (deafness-related variant) (human, UniProt O75838 1-187, R186W); assay: ITC
T9 sequence: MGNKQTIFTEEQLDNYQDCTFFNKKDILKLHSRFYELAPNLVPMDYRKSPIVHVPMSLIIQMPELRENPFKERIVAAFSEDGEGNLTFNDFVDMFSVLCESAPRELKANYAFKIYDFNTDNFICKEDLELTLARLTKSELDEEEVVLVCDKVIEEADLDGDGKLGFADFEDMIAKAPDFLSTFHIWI

[10] = target: T10, human CIB2 1-187 D127A/D168A (EF-hand double mutant) (human, UniProt O75838 1-187, D127A | D168A); assay: ITC
T10 sequence: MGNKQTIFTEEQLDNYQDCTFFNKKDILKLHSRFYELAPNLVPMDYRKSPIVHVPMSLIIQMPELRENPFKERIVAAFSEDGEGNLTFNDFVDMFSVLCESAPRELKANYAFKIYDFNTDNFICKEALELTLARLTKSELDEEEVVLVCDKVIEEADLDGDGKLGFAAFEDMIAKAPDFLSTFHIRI

[11] = target: T11, human CIB2 Y115C (deafness-related variant) (human, UniProt O75838 1-187, Y115C); assay: ITC
T11 sequence: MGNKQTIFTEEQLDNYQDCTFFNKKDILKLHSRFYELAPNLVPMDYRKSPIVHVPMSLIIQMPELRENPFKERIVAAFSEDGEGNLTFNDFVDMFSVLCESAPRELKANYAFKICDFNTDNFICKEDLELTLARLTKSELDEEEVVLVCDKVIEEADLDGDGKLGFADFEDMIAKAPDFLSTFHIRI

[12] = target: T1, human CIB2 1-187 (calcium- and …); assay: SEC-MALS
[13] = target: T5, human CIB2 E64D (deafness-related …); assay: pull-down
[14] = target: T6, human CIB2 R66W (deafness-related …); assay: pull-down
[15] = target: T7, human CIB2 I123T (deafness-related …); assay: pull-down
[16] = target: T9, human CIB2 R186W (deafness-related …); assay: pull-down
[17] = target: T11, human CIB2 Y115C (deafness-related …); assay: pull-down
[18] = target: T1, human CIB2 1-187 (calcium- and …); assay: ITC + SEC
[19] = target: T12, human CIB2 F91S (deafness-related variant) (human, UniProt O75838 1-187, F91S); assay: pull-down
T12 sequence: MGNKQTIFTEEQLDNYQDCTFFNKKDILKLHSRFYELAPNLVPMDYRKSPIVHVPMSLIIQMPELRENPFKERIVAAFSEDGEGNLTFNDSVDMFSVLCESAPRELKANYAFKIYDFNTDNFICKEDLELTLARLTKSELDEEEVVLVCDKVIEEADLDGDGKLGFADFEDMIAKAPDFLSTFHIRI

[20] = target: T12, human CIB2 F91S (deafness-related …); assay: ITC

B1: human TMC2 CBD-2 (aa 363-424) (domain or fragment)
chain: NTQGSTGEGESDNFTFSFKMFTSWDYLIGNSETADNKYASITTSFKESIVDEQESNKEENIH
- binding result [1]: binds

B3: human TMC1 CBD-1 (CIB binding domain-1), residues 86-136 (domain or fragment)
chain: EEELERLKAELDEKRQIIATVKCKPWKMEKKIEVLKEAKKFVSENEGALGK
- binding result [2]: binds
- binding result [3]: binds
- binding result [4]: binds
- binding result [5]: binds
- binding result [6]: binds
- binding result [7]: binds
- fold decrease in binding affinity against wild-type CIB2 [8]: > 15 fold
- Kd [1]: ~300 nM
- binding result [9]: binds
- binding result [10]: binds
- binding result [11]: binds
- stoichiometry N [12]: 1

B4: GST-tagged human TMC1 CBD-1 (86-136) (domain or fragment)
chain: EEELERLKAELDEKRQIIATVKCKPWKMEKKIEVLKEAKKFVSENEGALGK
- binding result [13]: binds
- binding result [14]: binds
- binding result [15]: binds
- binding result [16]: binds
- binding result [17]: binds

B5: human TMC1 CBD-1 (86-136) K121E (domain or fragment)
chain: EEELERLKAELDEKRQIIATVKCKPWKMEKKIEVLEEAKKFVSENEGALGK
- binding result [18]: binds

Continued, values first:

- Kd [1]: ~600 nM
B2: human TMC2 CBD-1 (aa 150-200) (domain or fragment)
chain: EEELAQILEQVEEKKKLIATMRSKPWPMAKKLTELREAQEFVEKYEGALGK

- binding result [19]: binds
- binding result [14]: binds
- binding result [16]: binds
B6: GST-tagged human TMC1 CBD-2 (298-359) (domain or fragment)
chain: KNIGDDGGGDDNTFNFSWKVFTSWDYLIGNPETADNKFNSITMNFKEAITEEKAAQVEENVH

- binding result [18]: binds
B7: human TMC1 CBD-1 (86-136) K107A (domain or fragment)
chain: EEELERLKAELDEKRQIIATVACKPWKMEKKIEVLKEAKKFVSENEGALGK

- Kd [1]: ~4600 nM
Binder: ELDEKRQIIATVKCKPWKMEKKIEVLKEAKKFVSENEGALGK (domain or fragment) [human TMC1 fragment 95-136]

- binding result [20]: binds
- binding result [6]: binds
- binding result [9]: binds
B8: human TMC1 CBD-2, amino acids 298-359 (first cytoplasmic loop between TM domains 2 and 3) (domain or fragment)
chain: KNIGDDGGGDDNTFNFSWKVFTSWDYLIGNPETADNKFNSITMNFKEAITEEKAAQVEENVH
